In publication PMC3842936:

Assays:
[1] = biological target: native AdcAII of Streptococcus pneumoniae D39 (Streptococcus pneumoniae D39 (endogenous in D39 membranes)); assay: cross-linking + co-IP; S. pneumoniae D39 membrane preparations incubated with the thiol-cleavable cross-linker DTSSP (0.8 mM, 1 h) before the immuno-precipitation (x-IP); polyclonal antibody against AdcAII and protein A sepharose; immunoblot, signals quantified with Image J
[2] = biological target: native AdcAII of Streptococcus pneumoniae D39 (Streptococcus pneumoniae D39 (endogenous in D39 membranes)); assay: co-IP; S. pneumoniae D39 membranes solubilised in 2% Triton X-100, not cross-linked (IP); polyclonal antibody against AdcAII and protein A sepharose; 50 mM HEPES, 150 mM NaCl, pH 8, washes with 2% Triton X-100; immunoblot, signals quantified with Image J

“native PhtD (polyhistidine triad protein D) of Streptococcus pneumoniae D39 (natural protein)” was tested, and the percentage of membrane-bound protein immuno-precipitated by AdcAII polyclonal antibodies [1] was 12% and the percentage of membrane-bound protein immuno-precipitated by AdcAII polyclonal antibodies [2] was 1.7%.
